Test results reported in the nanobody polyreactivity screen of Harvey et al. (2022).

Assay: yeast display, Sf9 membrane polyspecificity reagent, FACS + sequencing; frameworks hold sequencing errors
Summary of the method: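 A synthetic nanobody library was expressed on Saccharomyces cerevisiae BJ5465 by galactose induction for 36–48 hours. The library was stained for 1 hour at 4 °C with 10% biotinylated, detergent-solubilized Sf9 membrane reagent and enriched with streptavidin microbeads before FACS. Low and high (top ~1%) gates were set on anti-HA fluorescence for expression and streptavidin fluorescence for reagent binding, and each polyreactivity label reflects the gate of origin.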

Sequence	polyreactivity (PSR sort gate)
QVQLVESGGGLVQAGGSLRLSCAASGRTSQEYAMGWYRQAPGKERELVAGITRRGGTTYYADSVKGRFTISRDNAKNTVYLQMNRLNPEDTAVYYCAKRYTHSFKYEYWGQCTQVTVSS	high polyreactivity
QVQLVESGGGLVQAGGSLRLSCAASGRTSRDYAMGWYRQAPGKERELVAAIRWRGVSTYYADSVKGRFTISRDNAKNTVYLQMNSLKPEDTAVYYCAKRESVSTSAGKGAMDSWGQGTQVTVSS	high polyreactivity
QVQLVESGGGLVQAGGSLRLSCAASGRTSRFYAMGWYRQAPGKERELVARITTRGGSTYYADSVKGRFTISRDNAKNTVYLQMNSLKPEDTAVYYCNAERAGTYRYDYWGQGTQVTVSS	high polyreactivity
QVQLVESGGGLVQAGGSLRLSCAASGRTSRLYAMGWYRQAPGKERELVATITRSAGDTYYADSVKGRFTISRDNAKNTVYLQMNSLKPEDTAVYYCNARAAKWSRYDYWGQGTQVTVSS	high polyreactivity
QVQLVESGGGLVQAGGSLRLSCAASGRTSRRNAMGWYRQAPGKERELVAATSGSGTSTYYADSVKGRFTISRDNAKNTVYLQMNSLKPEDTAVYYCNTDTSRRAVQYDYWGQGTQVTVSS	high polyreactivity
QVQLVESGGGLVQAGGSLRLSCAASGRTSRVNAMGWYRQAPGKERELVATITKSGGSTFYADSVKGRFTISRDNAKNTVYLQMNILKPEDTAVYYCNAGGVRATKGYDYWGQGTQVTVSS	low polyreactivity
QVQLVESGGGLVQAGGSLRLSCAASGRTSRVNAMGWYRQAPGKERELVATITKSGGSTFYADSVKGRFTISRDNPKNTVYLQMNILKPEDTAVYYCNAGGVRATKGYDYWGQGTQVTVSS	low polyreactivity
QVQLVESGGGLVQAGGSLRLSCAASGRTSRYALGWYRQAPGKERELVAAISRNGGTTSYADSVKGRFTISRDNAKNTVYLQMNSLKPEDTAVYYCNAYSAFVPPTRGYYWGQGTQVTVSS	high polyreactivity
QVQLVESGGGLVQAGGSLRLSCAASGRTSSVYARGWSRQAPGKEREWVAAITSSGGSTYYADSVKGRFTISRDNAKNTVYLQMNSLNPEDTAVYYCAAETYPVWGVAFYYWGQGTQVTVSS	high polyreactivity
QVQLVESGGGLVQAGGSLRLSCAASGRTSVSYAMGWYRQAPGKERELVASITSGGSTYYADSVKGRFTISRDNAKNTVYLQMNSLKPEDTAVYYCAARGRNVAGYKGGYWGQGTQVTVSS	high polyreactivity
QVQLVESGGGLVQAGGSLRLSCAASGRTSWPYAMGWYRQAPGKERELVAGISRNGGRTYYADSVKGRFTISRDNAKNTVYLQMNSLKPEDTAVYYCNAYPPSRHDYWGQGTQVTVSS	high polyreactivity
QVQLVESGGGLVQAGGSLRLSCAASGRTSWVNAMGWYRQAPGKERELVAAIVSGGTTKYADSVKGRFTISRDNAKNTVYLQMNSLKPEDTAVYYCAVRYSKRSVYTYGFNYWGQGTQVTVSS	high polyreactivity
QVQLVESGGGLVQAGGSLRLSCAASGRTSYGYAMGWYRQAPGKERELVAGISRSGSSTYYADSVKGRFTISRDNAKNTVYLQMNSMKPEDNAVYYCNAARPFNRVPRQTWKMGYWGQGTQVTVSS	high polyreactivity
QVQLVESGGGLVQAGGSLRLSCAASGRTSYVYAMGWYRQAPGKERELVAAITSSGGSTYYADSVKGRFTISRDNAKNTVYLQMNSLKPEDTAVYYCAASRVRYSYGYPYYYWGQGTQVTVSS	high polyreactivity
QVQLVESGGGLVQAGGSLRLSCAASGRTSYYAMGWYRQAPGKERELVAAINSGDSTTYADSVKGRFTISRDNAKNNVYLQMNSLKPEDTAVYYCATALYDWYSLEFDYWGQGTQVTVSS	low polyreactivity
QVQLVESGGGLVQAGGSLRLSCAASGRTSYYAMGWYRQAPGKETELVAAINSGDSPTDADSVKGRFTISRDNAKNTVYLQMNTQTPEDTAVYYCATALYDWYSLEFDYWGQGTQVTVSS	low polyreactivity
QVQLVESGGGLVQAGGSLRLSCAASGRTSYYNTMGWYRPAPGKERELVAASTGRGDSTYYADSVKGRFTISRDNAKKTGYLQMNSLKPEDTAVYYCAADELHLLYRVSKFVDYNHWGQGTQVTVSS	low polyreactivity
QVQLVESGGGLVQAGGSLRLSCAASGRTVGGNAMGWYRQAPGKERELVAAINRSGGTTYYADSVKGRFTISRDNAKNTVYLQMNSLKPEDTAVYYCAARRTVSATRMGYWGQGTQVTVSS	high polyreactivity
QVQLVESGGGLVQAGGSLRLSCAASGRTVLVYTMGWYRQAPGKERELVAAISWSDGSTYYADSVKGRFTMSRDNAKNTVYLHMNSLKPEDTAVYYCAARTFSAFWRGGYDYWGQGTQVTVSS	low polyreactivity
QVQLVESGGGLVQAGGSLRLSCAASGRTVNAMGWYRQAPGKERELVAAINSGTSTYADSVKGRFTISRDNAKNTVYLQMNSLKPEDTAVYYCAKTYFWPFHGRFVGYDYWGQGTQVTVSS	low polyreactivity
QVQLVESGGGLVQAGGSLRLSCAASGRTVSSNAMGWYRQAPGKERELVASISFRGGRTYYADSVKGRFTISRDNAKNPVYLQMNSLKPEDTADYYCVSGTKRTGYGYWGQGTQVTVSS	high polyreactivity

Sequence	polyreactivity (PSR sort gate)
QVQLVESGGGLVQAGGSLRLSCAASGRTVWSNAMGWYRQAPGKEREFVASISRTGVNTYYADSVKGRFTISRDYAKNSVYLQMNSLKPEDTAVYYCNVYSARRGVGTLARYSEYDYWGQGTQVTVSS	high polyreactivity
QVQLVESGGGLVQAGGSLRLSCAASGRTVYSYAMGWYRQAPGKERELVAAISYTGASTFYADSVKGRFTISRDNAKNTVYLQMNSLKPEDTAVYYCAAESQPSYGETDEYWGQGTQVTVSS	high polyreactivity
QVQLVESGGGLVQAGGSLRLSCAASGRTWFYAMGWYRQAPGKERELVAVISRSGASTNYADSVKGRFTISRDNAKNTVYLQMNSLKPEDTAVYYCAAGWRYRGGYWYPRLEYGYWGQGTQVTVSS	high polyreactivity
QVQLVESGGGLVQAGGSLRLSCAASGRTWSNAMGWYRQAPGKERELVAVITWDGVITYYADSVKGRFTISRDNAKNTVYLQMNSLKPEETAVYYCAATVYPGAGDYWGQGTQVTVSS	high polyreactivity
QVQLVESGGGLVQAGGSLRLSCAASGRTYAYYAIGWYRQEPGKERELVAAISSGGSTYYADSVKGLFTISRDNAKNTVYLQMNSLKPEDTAVNYCATRDKQYYYWGQGTQVTLSS	high polyreactivity
QVQLVESGGGLVQAGGSLRLSCAASGRTYDNTMGWYRKAHGKESELVAAISWSGGRTRYADSVKGRFTISRDNAKNTVYLQMNSLKPEDTAVYYCAAANGGYPPYRYVYGYYYWGQGTQVTVSS	high polyreactivity
QVQLVESGGGLVQAGGSLRLSCAASGRTYGGYAMGWYRQAPGKERELVAVINWRGGSTYYADSVKGRFTISRDNAKHTVYLQMNILKPEDTAVYYCNKVSLRTQSAQFHYWGQGTQVTVSS	high polyreactivity
QVQLVESGGGLVQAGGSLRLSCAASGRTYGYAMGSYRPAPGKERELVARITWRGGSTSYADSVKGRFTISRDNAKNTVYLQMNILKPEDTAVYYCAAGFYFPVYTYVRIRYYYWGQGTQVTVSS	high polyreactivity
QVQLVESGGGLVQAGGSLRLSCAASGRTYGYAMGWYTQAPGIERELVARINRTTGSTYYADSVKGRFTISRDNAKNTVYLQMNSLKPQDTAVYYCAKSSYSRALKLYYWGQGSQVTVSS	high polyreactivity
QVQLVESGGGLVQAGGSLRLSCAASGRTYHQYAMGWYRQAPGKERELVARITSGGRTNYADSVKGRFTISRDNAKNTVYLHMNSLKPEDTAVYYCPAASSYYFYISSKLDYWGQGTQVTVSS	high polyreactivity
QVQLVESGGGLVQAGGSLRLSCAASGRTYISNVIGWYRQAPGKERELVAAISGSSGSTRYADSVKGRFTISRDNAKNTVYLQMNSLKPEDSAVYYCAARAPWPKWGYYYWGQGTQVTVSS	high polyreactivity
QVQLVESGGGLVQAGGSLRLSCAASGRTYRYAMGWYRQAPGNERELVAAIRWSGGSTYYADSVKGRFTISRDNAKNTVYIQMNSLKPEDTAVYYCAADSYATRYYYWGQGTQVTVSS	high polyreactivity
QVQLVESGGGLVQAGGSLRLSCAASGRTYVRNGMGWYRQAPGKERELVAAISRGGSTNYADSVKGRFTISRDNAKNTVYLEMNSLKPEDTAVYYCNARTAEYRPYYYRYNYWGQGTQVTLSS	high polyreactivity
QVQLVESGGGLVQAGGSLRLSCAASGRTYVYTMGWYRQAPGKERELVAAIRYSGGRTYYADSVKGRFTISRDNAMNTVYLQMNSLKPEDTAVYYCAARNYATGVRYDYWGQGTQVTVSS	high polyreactivity
QVQLVESGGGLVQAGGSLRLSCAASGSFFSTYAMGWYRQAPGKERELVAAISVSGSSTYYADSVKGLFTISRDNAKNTVYLQMNSLKPEDTAVYYCNKAFRSVRPRRRYDYWGQGTQVTVSS	low polyreactivity
QVQLVESGGGLVQAGGSLRLSCAASGSICYGYTMGWYRQAPGKEREFVAAITGSGGSTYYADSVKGRFTISRDNAKNTVYLQMNSLKPEDTAVYYCAARRYVNRRYDYWGQGTQVTVSS	high polyreactivity
QVQLVESGGGLVQAGGSLRLSCAASGSIDWNAMGWYRQAPGKEREFVAAISSSGGRTSYADSVKGRFTISRDNAKNTVYLQMNSLKPEDTAVYYCAAAGSYDGDRYYYWGQGTQVTVSS	high polyreactivity
QVQLVESGGGLVQAGGSLRLSCAASGSIFAANAMGWYRQAPGKEREFVASISRSGGSTYYADSVKGRFTISRDNAKNTVYLQMTSLKPEDTAVYYCATRTRIYSARDHYGYWGQGTQVTVSS	low polyreactivity
QVQLVESGGGLVQAGGSLRLSCAASGSIFAANTMGWYRQAPGKERELVAAITGSGASTYYADSVKGRFTISRDNAKNTVYLQMNSLKPEDTAVYYCAARRYTSYYKDGWYAYYYWGQGTQVTVSS	high polyreactivity
QVQLVESGGGLVQAGGSLRLSCAASGSIFAAYAMGGYRQAPGKERELVATIRWTSGSTYYADSVKGRFTISRDNAKNTVYLQMNSLKPEDTAVFYCAAQKNKYYWPRFGYWGQGTQVTGSS	high polyreactivity
